For data set [1], the system named is Saccharomyces cerevisiae. Kind of data set: protein stability index of tFT-peptide fusion (C-terminal peptide) (PSI (0-1 scale)); higher = more stable (slower turnover). On the procedure:
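MPS profiling in S. cerevisiae of the tFT-X12 degron library: putative degron peptides plus stable controls, 12 aa, fused to the C-terminus of a sfGFP-mCherry timer. Cells are FACS-sorted into 8 mCherry/sfGFP bins and deep-sequenced. PSI runs from 0 (unstable) to 1 (stable). Backgrounds are wild type, das1Δ and doa10Δ at 30 °C, and wild type, das1Δ, cdc34-1 and cdc53-1 at 37 °C; 2-3 technical replicates each.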

Data set [2] deals with Saccharomyces cerevisiae. Described as above. The conditions noted are these: genetic background: wild type; temperature: 30 C.
The mark [3] stands for this setting: genetic background: cdc34-1, temperature: 37 C.
Where [4] appears, read: genetic background: cdc53-1, temperature: 37 C.
The mark [5] stands for this setting: genetic background: das1 deletion, temperature: 30 C.
[6] abbreviates: genetic background: das1 deletion, temperature: 37 C.
[7] abbreviates: genetic background: doa10 deletion, temperature: 30 C.
Where [8] appears, read: genetic background: wild type, temperature: 30 C.
[9] abbreviates: genetic background: wild type, temperature: 37 C.

± gives the standard deviation of the averaged measurements.
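Note: PSI is a weighted mean of sequencing reads over stability bins, variants kept only with over 10 reads, mCherry proximal and sfGFP distal, peptide attached via GGGS linker.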

For the sequence GSMGGVGVLGGD, the protein stability index in the data set on Saccharomyces cerevisiae [1] (setting [3]) amounted to 0.544 ± 0.071; in the data set on Saccharomyces cerevisiae [1] (setting [4]), 0.6535 ± 0.0059; with Saccharomyces cerevisiae [1] (setting [5]), 0.467 ± 0.0086; in the data set on Saccharomyces cerevisiae [1] (setting [6]), 0.5571 ± 0.0043; in the data set on Saccharomyces cerevisiae [1] (setting [7]), 0.486 ± 0.018; with Saccharomyces cerevisiae [1] (setting [8]) it was 0.476 ± 0.013. This sequence also gave a protein stability index with Saccharomyces cerevisiae [1] (setting [9]) of 0.552 ± 0.018.
Consider IGWGGGTWVKMG, for which the protein stability index turned out to be 0.544 ± 0.0058 in the data set with Saccharomyces cerevisiae [1] (setting [3]); 0.7335 ± 0.0016 with Saccharomyces cerevisiae [1] (setting [4]); 0.654 ± 0.0079 in the data set with Saccharomyces cerevisiae [1] (setting [5]); 0.769 ± 0.015 in the data set with Saccharomyces cerevisiae [1] (setting [6]); 0.0923 ± 0.022 in the data set on Saccharomyces cerevisiae [1] (setting [7]); 0.106 ± 0.023 in the data set on Saccharomyces cerevisiae [1] (setting [8]). In the data set on Saccharomyces cerevisiae [1] (setting [9]), this sequence had a protein stability index of 0.166 ± 0.038.
For LEDVLFVMVINI, the protein stability index is 0.4551 ± 0.0027 with Saccharomyces cerevisiae [1] (setting [3]); 0.542 ± 0.028 in the data set on Saccharomyces cerevisiae [1] (setting [4]); 0.308 ± 0.038 in the data set on Saccharomyces cerevisiae [1] (setting [5]); 0.549 ± 0.035 with Saccharomyces cerevisiae [1] (setting [6]); 0.346 ± 0.012 in the data set on Saccharomyces cerevisiae [1] (setting [7]); 0.292 ± 0.025 in the data set on Saccharomyces cerevisiae [1] (setting [8]). Besides, the protein stability index with Saccharomyces cerevisiae [1] (setting [9]) came to 0.49 ± 0.03.
For the sequence LLSLLLDPLLCL, the protein stability index in the data set with Saccharomyces cerevisiae [1] (setting [3]) was found to be 0.582 ± 0.024; in the data set on Saccharomyces cerevisiae [1] (setting [4]), 0.624 ± 0.0029; with Saccharomyces cerevisiae [1] (setting [5]), 0.522 ± 0.026; in the data set on Saccharomyces cerevisiae [1] (setting [6]), 0.634 ± 0.015; in the data set on Saccharomyces cerevisiae [1] (setting [7]) it was 0.521 ± 0.022; in the data set on Saccharomyces cerevisiae [1] (setting [8]), 0.534 ± 0.024. This sequence also showed a protein stability index in the data set with Saccharomyces cerevisiae [1] (setting [9]) of 0.6166 ± 0.0013.
Regarding SDGGVVRGGCRG, the protein stability index in the data set with Saccharomyces cerevisiae [1] (setting [3]) is 0.592 ± 0.083; with Saccharomyces cerevisiae [1] (setting [4]), 0.787 ± 0.012; in the data set on Saccharomyces cerevisiae [1] (setting [5]) it was 0.519 ± 0.061; in the data set on Saccharomyces cerevisiae [1] (setting [6]), 0.714 ± 0.1; in the data set with Saccharomyces cerevisiae [1] (setting [7]) it was 0.549 ± 0.081; with Saccharomyces cerevisiae [1] (setting [8]) it was 0.512 ± 0.046. In the data set with Saccharomyces cerevisiae [1] (setting [9]), the protein stability index was determined as 0.598 ± 0.016.
As for SVYLYFQVVAYG, the protein stability index was found to be 0.0652 ± 0.021 in the data set on Saccharomyces cerevisiae [1] (setting [3]); 0.0815 ± 0.058 with Saccharomyces cerevisiae [1] (setting [4]); 0.0877 ± 0.049 in the data set with Saccharomyces cerevisiae [1] (setting [5]); 0.198 ± 0.02 with Saccharomyces cerevisiae [1] (setting [6]); 0.0536 ± 0.021 in the data set with Saccharomyces cerevisiae [1] (setting [7]); 0.0724 ± 0.025 in the data set with Saccharomyces cerevisiae [1] (setting [8]). Further, the protein stability index in the data set with Saccharomyces cerevisiae [1] (setting [9]) amounted to 0.156 ± 0.0094.
For VWVVRGFLGFGG, the protein stability index with Saccharomyces cerevisiae [1] (setting [3]) was found to be 0.532 ± 0.068; with Saccharomyces cerevisiae [1] (setting [4]), 0.526 ± 0.029; in the data set on Saccharomyces cerevisiae [1] (setting [5]) it was 0.4302 ± 0.0014; with Saccharomyces cerevisiae [1] (setting [6]) it was 0.457 ± 0.012; in the data set on Saccharomyces cerevisiae [1] (setting [7]), 0.437 ± 0.0075; in the data set with Saccharomyces cerevisiae [1] (setting [8]), 0.438 ± 0.014. For the same sequence, the protein stability index in the data set with Saccharomyces cerevisiae [1] (setting [9]) stood at 0.4411 ± 0.00055.
In the data set on Saccharomyces cerevisiae [2], WVTQHAMEVGRI had a protein stability index of 0.712 ± 0.084.
The sequence WVVGGVRGVWGA had a protein stability index in the data set on Saccharomyces cerevisiae [2] of 0.729 ± 0.011.
Regarding WWAERCLGGGRG, the protein stability index in the data set with Saccharomyces cerevisiae [2] is 0.744 ± 0.018.
Take WWAGGCGGERGG: the protein stability index with Saccharomyces cerevisiae [2] worked out at 0.686 ± 0.018.
In the data set on Saccharomyces cerevisiae [2], WWGAKLDGKVSE showed a protein stability index of 0.813 ± 0.0089.
WWGCVGRVGVEG: the protein stability index in the data set on Saccharomyces cerevisiae [2] amounted to 0.726 ± 0.1.
Still for that read-out and setting: then WWGGGVRGGMGG, with 0.7578 ± 0.002; and WWGRWGASVGRG, with 0.686 ± 0.033; and WWRGSVWHREVA, with 0.701 ± 0.0088.
Regarding WYGPKLVGGSIV, the protein stability index in the data set with Saccharomyces cerevisiae [2] turned out to be 0.722 ± 0.12.
The same measure, in the same setting: the figure for WYITVMSHFNET is 0.753 ± 0.009.
On the same count and under the same terms, then WYWGGWMRGCGW, with 0.75 ± 0.048.
On the same count and under the same terms, the figure for YAGPCRRHSGGC is 0.679 ± 0.082.
YALLLPRSVFQF registered a protein stability index with Saccharomyces cerevisiae [2] of 0.517 ± 0.038.
Still for that read-out and setting: the figure for YASDGNSRLRAN is 0.691 ± 0.02; for YASKQNPKPPSP it is 0.682 ± 0.039; for YASLSGSRYRPG it is 0.62 ± 0.051.
In the data set on Saccharomyces cerevisiae [2], YCGGWCGGWEIG returned a protein stability index of 0.709 ± 0.0075.
In turn, YCGGWWGGWEIG displayed a protein stability index in the data set on Saccharomyces cerevisiae [2] of 0.719 ± 0.0036.
The same measure, in the same setting: then YCHTSISPNSHL, with 0.787 ± 0.096; and YCLLGHIYKPLS, with 0.679 ± 0.011.
The same measure, in the same setting: then YCRVRYKKSVLR, with 0.694 ± 0.015; and YCTVDECWGRWH, with 0.709 ± 0.08; and YCWGYVVARPSV, with 0.695 ± 0.017.
Same read-out and setting: then YEMTGHVVTHEI, with 0.69 ± 0.075.
As to YFGSHLILSRAT, the protein stability index with Saccharomyces cerevisiae [2] amounted to 0.665 ± 0.11.
Regarding YFNNVFQVAGGF, the protein stability index in the data set on Saccharomyces cerevisiae [2] came out at 0.639 ± 0.025.
In the data set with Saccharomyces cerevisiae [2], YGAGLRIGQFRC gave a protein stability index of 0.747 ± 0.1.
Still for that read-out and setting: the figure for YGCPSSSSVLDG is 0.812 ± 0.11.
The same measure, in the same setting: the figure for YGGRQRCRGRVE is 0.825 ± 0.16; for YGKENGNRNTGR it is 0.621 ± 0.014.
Still for that read-out and setting: then YGRANATHLGRR, with 0.661 ± 0.005; and YHARPQALPSRP, with 0.658 ± 0.055; and YHMNSSLLCLLW, with 0.631 ± 0.032.
On to YIGGMRSHYASP, for which, in the data set on Saccharomyces cerevisiae [2], the protein stability index is 0.734 ± 0.12.
Consider YIRSKPASDQFA, for which the protein stability index in the data set on Saccharomyces cerevisiae [2] is 0.7093 ± 0.00062.
For YIVPAGGGLVSG, in the data set with Saccharomyces cerevisiae [2], the protein stability index is 0.642 ± 0.096.
Turning to YKMTFVRGQGYE, the protein stability index with Saccharomyces cerevisiae [2] is 0.69 ± 0.041.
On the same count and under the same terms, then YKNDNDKCIQMR, with 0.678 ± 0.011; and YKPLKNKDEEMD, with 0.6127 ± 0.00088.
In the data set on Saccharomyces cerevisiae [2], YLAYHVAAPGPV yielded a protein stability index of 0.686 ± 0.015.
The sequence YLCEATFLLTWL came in with a protein stability index with Saccharomyces cerevisiae [2] of 0.618 ± 0.024.
Still for that read-out and setting: the figure for YLGCSLAMAFSL is 0.6278 ± 0.0054.
Still for that read-out and setting: then YLLLAFQRPTPG, with 0.694 ± 0.019.
The same measure, in the same setting: the figure for YLLPSTPPPRIP is 0.6912 ± 0.0048; for YLQLALFHSIPH it is 0.738 ± 0.053.
In the data set with Saccharomyces cerevisiae [2], YLSLPTSISLSS gave a protein stability index of 0.693 ± 0.016.
On the same count and under the same terms, the figure for YPLPFRHASIPF is 0.606 ± 0.096; for YPLPPLFLPLLL it is 0.675 ± 0.046.
YPPLTNNQINES: the protein stability index in the data set with Saccharomyces cerevisiae [2] was 0.69 ± 0.015.
Same read-out and setting: then YPPPPPLAPPRP, with 0.747 ± 0.14; and YPPREEPREDLA, with 0.656 ± 0.026.
With YPSTPPPPPHPA, the protein stability index with Saccharomyces cerevisiae [2] stood at 0.687 ± 0.1.
Same read-out and setting: then YPTTSWNPARSV, with 0.692 ± 0.12.
The same measure, in the same setting: the figure for YQSLVSIDLGFS is 0.745 ± 0.034; for YRLAPGCSFHPT it is 0.666 ± 0.028; for YRPPSPPSPLPP it is 0.674 ± 0.007.
Still for that read-out and setting: then YSCLGFELWGKG, with 0.632 ± 0.067; and YSLQLSTVCCRL, with 0.614 ± 0.019; and YSLSDVAVLAST, with 0.629 ± 0.045.
The sequence YSLTFSIHSSCP yielded a protein stability index with Saccharomyces cerevisiae [2] of 0.697 ± 0.033.
Still for that read-out and setting: then YSLYVHPPNLYQ, with 0.6604 ± 0.0015; and YSRSSFSIPPPF, with 0.7239 ± 0.003; and YSSLPPAFPNRS, with 0.734 ± 0.1.
Regarding YSVPDFIVVSHL, in the data set with Saccharomyces cerevisiae [2], the protein stability index was 0.797 ± 0.12.
Same read-out and setting: the figure for YSWRAKGVKRLR is 0.659 ± 0.029; for YTDVWLPARGSG it is 0.689 ± 0.056; for YTKIIPIFPEQL it is 0.631 ± 0.03.
Same read-out and setting: then YVCCMEGFLKPL, with 0.619 ± 0.043.
Regarding YVFPYLLRAIPF, in the data set on Saccharomyces cerevisiae [2], the protein stability index is 0.601 ± 0.095.
On the same count and under the same terms, then YVLITGSTIPDN, with 0.694 ± 0.026; and YVVCMNKSSFRG, with 0.769 ± 0.042.
Still for that read-out and setting: the figure for YWVPPDTIKSAI is 0.7362 ± 0.0032.
